Laboratory results as given in FireProtDB (doi:10.1016/0167-4838(93)90045-s).

Conditions: Carica papaya, Thermal, DSC, glycine 0.05M, reversible: No

Chain of Chymopapain wild type, P14080 (P14080 whole entry): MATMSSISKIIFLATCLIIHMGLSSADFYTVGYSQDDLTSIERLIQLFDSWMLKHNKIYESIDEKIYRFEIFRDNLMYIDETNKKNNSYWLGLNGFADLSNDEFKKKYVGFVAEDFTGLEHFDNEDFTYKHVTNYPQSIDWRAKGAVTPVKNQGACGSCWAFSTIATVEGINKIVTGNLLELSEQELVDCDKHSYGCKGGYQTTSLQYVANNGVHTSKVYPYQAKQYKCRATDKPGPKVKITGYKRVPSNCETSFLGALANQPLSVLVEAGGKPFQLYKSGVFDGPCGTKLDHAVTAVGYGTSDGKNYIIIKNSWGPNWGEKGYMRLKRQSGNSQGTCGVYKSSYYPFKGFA

## Chymopapain wild type, P14080
pH 1.2
  Tm: 43 °C
  unfolding enthalpy (calorimetric): 105 kcal/mol
pH 1.91
  Tm: 56.9 °C
  unfolding enthalpy (calorimetric): 138 kcal/mol
pH 2.2
  Tm: 62 °C
  unfolding enthalpy (calorimetric): 144 kcal/mol
pH 2.35
  Tm: 67.9 °C
  unfolding enthalpy (calorimetric): 161 kcal/mol
pH 2.56
  Tm: 75.2 °C
  unfolding enthalpy (calorimetric): 174 kcal/mol
pH 3.18
  Tm: 81.1 °C
  unfolding enthalpy (calorimetric): 193 kcal/mol
pH 3.45
  Tm: 83.7 °C
  unfolding enthalpy (calorimetric): 199 kcal/mol
